Reference: patent US20070275916A1

Legend:
[1] = target: G-CSFR on mouse bone marrow cells (mouse) (UniProt P40223); test: radiolabeled G-CSF on bone marrow cells from vavCre+SOCS3-/fl mice, with and without excess unlabeled G-CSF
[2] = target: G-CSFR on mouse bone marrow cells (mouse) (UniProt P40223); test: radiolabeled G-CSF on bone marrow cells from control vavCre-SOCS3+/fl mice, with and without excess unlabeled G-CSF

Chain of UniProt P40223 (P40223 26-837): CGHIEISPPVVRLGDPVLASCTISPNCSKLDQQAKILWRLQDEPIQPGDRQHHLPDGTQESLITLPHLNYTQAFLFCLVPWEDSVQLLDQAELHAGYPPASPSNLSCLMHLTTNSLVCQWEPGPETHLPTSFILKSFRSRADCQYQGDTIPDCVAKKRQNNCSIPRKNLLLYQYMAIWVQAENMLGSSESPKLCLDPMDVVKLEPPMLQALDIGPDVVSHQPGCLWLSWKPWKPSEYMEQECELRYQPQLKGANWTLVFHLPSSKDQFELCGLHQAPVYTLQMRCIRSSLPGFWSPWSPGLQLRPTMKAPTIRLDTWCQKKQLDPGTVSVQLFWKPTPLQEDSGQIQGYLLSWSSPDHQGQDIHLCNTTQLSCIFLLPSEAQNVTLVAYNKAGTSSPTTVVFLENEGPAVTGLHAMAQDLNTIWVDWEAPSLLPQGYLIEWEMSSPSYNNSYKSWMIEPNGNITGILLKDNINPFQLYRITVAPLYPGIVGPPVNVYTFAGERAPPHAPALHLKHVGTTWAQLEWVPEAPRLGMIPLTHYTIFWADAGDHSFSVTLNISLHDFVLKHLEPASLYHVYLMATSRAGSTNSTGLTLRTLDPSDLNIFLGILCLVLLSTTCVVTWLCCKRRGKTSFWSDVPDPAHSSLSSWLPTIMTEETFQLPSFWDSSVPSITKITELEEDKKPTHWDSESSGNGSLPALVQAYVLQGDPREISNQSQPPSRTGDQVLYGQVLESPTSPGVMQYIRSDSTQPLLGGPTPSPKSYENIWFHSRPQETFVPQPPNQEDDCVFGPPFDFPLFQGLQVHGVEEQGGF

cpm bound [1]: 1700 cpm | cpm bound [2]: 1880 cpm
Substance: radiolabeled G-CSF (ligand)
